Results from article PMC11929898 (Scientific Reports, 2025).

Target: SMC3 (mouse (endogenous in mouse ES cells), UniProt Q9CW03 1-1217)
Assay: co-IP

SMC3, sequence (Q9CW03 whole entry): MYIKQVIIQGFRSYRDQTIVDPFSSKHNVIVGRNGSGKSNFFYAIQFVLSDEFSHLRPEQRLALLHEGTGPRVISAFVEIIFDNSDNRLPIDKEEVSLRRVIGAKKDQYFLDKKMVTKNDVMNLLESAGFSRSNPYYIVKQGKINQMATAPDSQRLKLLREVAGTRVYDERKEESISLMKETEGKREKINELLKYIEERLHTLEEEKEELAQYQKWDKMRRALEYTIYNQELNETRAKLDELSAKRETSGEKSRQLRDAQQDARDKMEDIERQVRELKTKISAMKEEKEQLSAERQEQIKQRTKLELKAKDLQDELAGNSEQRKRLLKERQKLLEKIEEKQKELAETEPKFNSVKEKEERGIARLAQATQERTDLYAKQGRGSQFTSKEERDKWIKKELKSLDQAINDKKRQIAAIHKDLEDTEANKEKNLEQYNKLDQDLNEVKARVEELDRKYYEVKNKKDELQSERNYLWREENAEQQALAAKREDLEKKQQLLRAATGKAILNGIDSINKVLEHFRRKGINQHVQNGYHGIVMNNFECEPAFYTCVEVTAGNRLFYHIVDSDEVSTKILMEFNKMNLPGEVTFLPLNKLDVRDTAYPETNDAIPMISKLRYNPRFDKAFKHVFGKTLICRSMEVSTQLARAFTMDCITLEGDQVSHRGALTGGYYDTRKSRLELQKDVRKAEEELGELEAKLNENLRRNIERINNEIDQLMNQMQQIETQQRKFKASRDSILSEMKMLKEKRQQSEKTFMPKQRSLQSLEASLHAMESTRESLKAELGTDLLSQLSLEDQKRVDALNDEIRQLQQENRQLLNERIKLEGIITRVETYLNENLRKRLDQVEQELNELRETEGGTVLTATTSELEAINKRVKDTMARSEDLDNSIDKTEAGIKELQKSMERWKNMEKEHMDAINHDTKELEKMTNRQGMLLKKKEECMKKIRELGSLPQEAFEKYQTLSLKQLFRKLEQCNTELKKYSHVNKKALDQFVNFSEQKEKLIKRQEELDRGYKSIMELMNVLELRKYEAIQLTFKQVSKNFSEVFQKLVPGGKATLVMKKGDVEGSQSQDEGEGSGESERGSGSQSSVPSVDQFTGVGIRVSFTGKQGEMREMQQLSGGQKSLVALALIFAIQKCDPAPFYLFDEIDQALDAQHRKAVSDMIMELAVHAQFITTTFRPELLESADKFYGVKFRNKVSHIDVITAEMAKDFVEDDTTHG

B1: REC8 (natural protein)
chain: MFYYPNVLQRHTGCFATIWLAATRGSRLVKREYLNVNVVKTCEEILNYVLVRVQPPVAGLPRPRFSLYLSAQLQIGVIRVYFQQCQYLVEDIQHILEHLHRAQLRIRIDMEEADLPSLLLPNCLAMMETLEDAPEPFFGKMSVDPRLPSPFDIPQIRHLLEAATPEKTRKETLPEATPDPRKPDRTLATVQSPEVITLQEAEPIRMLQIEGEQDLPEISRGDLELLIAEKDDAILLEERQRGRLLRQRRASLPLDESREEPRALEGAGLVSALSPPAPAQVEGIQEALPGQVFPPEVQKMTGWEPGALLTEVTPPQELRLPAPPSTEKRLPSLQRPLPRRHRRRQLLFWDKETQISREKFEEQLQTGAHCWEYPVAQPPKRMLTSPAELFRTPTLSGWLPPELLGLWTHCAQVPQRMLRQRPQLETEETVEEERAADEEERRKTEALSEIEVLREAQEPSGPLMLSSELSLEAAEDEKSRTSLIPPEWWAWSEEGQPEPPALPMLPELPEVPMEMPPRPELSSEAVLRAVALKLQANKELDFSSLVPPLSPRKLASRVFYLLLVLSTQKILLVEQQKPYGPLLIRPGPKFP
fold change of co-IP with siRad21 against siCtrl: 1.92 fold
